Laboratory results taken from patent US8859223B1, “Compositions and methods for imaging beta-secretase activity in living cells and organisms” (Duke University, priority 2012, dated 2014).
Square brackets hold non-standard residues; d marks the D form. Ends that are not written are not given here. 2Thi = N[C@@H](Cc1cccs1)C(=O)O; Nva = CCC[C@H](N)C(=O)O

How the values were obtained:
BACE [1] = target: T1, BACE (Homo sapiens, UniProt P56817); test: Evaluation of peptides as BACE substrates (percent cleavage by LC-MS); format: biochemical; conditions: 10 hr incubation with BACE enzyme, determined by LC-MS
Description: In order to evaluate a range of peptide amino acid sequences as BACE substrates for the probes, the peptides shown below in Table II were incubated with BACE enzyme under conditions suitable for enzyme activity and the percent cleavage after 10 hr was determined by LC-MS. Thus, in addition to SEQ ID NO: 1 present in β-MAP, the peptide sequences corresponding to SEQ ID NO's: 2-6 and 10-11 can also be useful as BACE substrates in the BACE probes of the present disclosure. For example, the specific BACE substrate sequence can be chosen based on the level of cleavage desired for a particular use for which the probe will be utilized. In can be envisioned that a higher or a lower amount of BACE probe cleavage could be desirable based on the different uses of the BACE probes.

BACE [2] = target: T1, BACE; conditions: compared to wild type; cited from earlier work

T1 sequence (P56817 46-501): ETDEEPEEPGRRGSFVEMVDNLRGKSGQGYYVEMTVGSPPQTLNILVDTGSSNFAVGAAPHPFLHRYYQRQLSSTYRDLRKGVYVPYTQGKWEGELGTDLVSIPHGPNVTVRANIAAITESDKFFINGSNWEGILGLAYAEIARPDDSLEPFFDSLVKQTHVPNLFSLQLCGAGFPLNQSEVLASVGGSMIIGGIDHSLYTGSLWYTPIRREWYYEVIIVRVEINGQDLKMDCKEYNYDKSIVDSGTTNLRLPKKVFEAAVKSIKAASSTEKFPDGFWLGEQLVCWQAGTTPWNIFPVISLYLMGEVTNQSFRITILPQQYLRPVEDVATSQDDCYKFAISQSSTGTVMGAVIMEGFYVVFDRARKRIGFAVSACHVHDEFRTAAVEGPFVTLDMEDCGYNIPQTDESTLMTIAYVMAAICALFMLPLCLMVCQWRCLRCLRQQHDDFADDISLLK

Substance	Percent Cleavage after 10 hr Incubation with BACE (BACE [1])	increase in Kcat/KM (BACE [2])
EI(Thi)(Thi)-(Nva)AHF (EI[2Thi][2Thi][Nva]AHF) [BACE substrate polypeptide with unnatural amino acids thienyl and norvaline]	25%	
EIDL-MVLD (EIDLMVLD) [BACE substrate polypeptide]	20%	
EIDL-SSHD (EIDLSSHD) [BACE substrate polypeptide]	5%	
EVNF-EVEF (EVNFEVEF) [BACE substrate polypeptide]	85%	
Swedish mutant APP: amyloid precursor protein with the Swedish mutation		60 fold

Further lines, with some results ahead:

Percent Cleavage after 10 hr Incubation with BACE (BACE [1])	Substance	increase in Kcat/KM (BACE [2])
0.5%	APSL-DAHF (APSLDAHF) [peptide evaluated as BACE substrate]	
Not Detected	ASNL-DAHF (ASNLDAHF) [peptide evaluated as BACE substrate]	
1%	DETL-DAHF (DETLDAHF) [peptide evaluated as BACE substrate]	
50%	EVNL-DAEF (EVNLDAEF) [BACE substrate polypeptide]	
50%	EVNL-DAHF (EVNLDAHF) [BACE substrate polypeptide]	
3.5%	EVNL-SSHD (EVNLSSHD) [BACE substrate polypeptide]	
